Where a chain is given by its changes, count along the chain named. Blank lines part the entries; values can stand above or below the binder they belong to.
What was measured:
Test in all cases: cell-based or functional assay
[1] = target: T1, human cMET on cells (Hs746T, H596, EBC-1) (human, UniProt P08581 25-1390)
[2] = target: T1, human cMET on cells (Hs746T, H596, …); remark: listed apart in the source
[3] = target: T1, human cMET on cells (Hs746T, H596, …); remark: listed apart in the source

T1 sequence (P08581 25-1390 limits assumed): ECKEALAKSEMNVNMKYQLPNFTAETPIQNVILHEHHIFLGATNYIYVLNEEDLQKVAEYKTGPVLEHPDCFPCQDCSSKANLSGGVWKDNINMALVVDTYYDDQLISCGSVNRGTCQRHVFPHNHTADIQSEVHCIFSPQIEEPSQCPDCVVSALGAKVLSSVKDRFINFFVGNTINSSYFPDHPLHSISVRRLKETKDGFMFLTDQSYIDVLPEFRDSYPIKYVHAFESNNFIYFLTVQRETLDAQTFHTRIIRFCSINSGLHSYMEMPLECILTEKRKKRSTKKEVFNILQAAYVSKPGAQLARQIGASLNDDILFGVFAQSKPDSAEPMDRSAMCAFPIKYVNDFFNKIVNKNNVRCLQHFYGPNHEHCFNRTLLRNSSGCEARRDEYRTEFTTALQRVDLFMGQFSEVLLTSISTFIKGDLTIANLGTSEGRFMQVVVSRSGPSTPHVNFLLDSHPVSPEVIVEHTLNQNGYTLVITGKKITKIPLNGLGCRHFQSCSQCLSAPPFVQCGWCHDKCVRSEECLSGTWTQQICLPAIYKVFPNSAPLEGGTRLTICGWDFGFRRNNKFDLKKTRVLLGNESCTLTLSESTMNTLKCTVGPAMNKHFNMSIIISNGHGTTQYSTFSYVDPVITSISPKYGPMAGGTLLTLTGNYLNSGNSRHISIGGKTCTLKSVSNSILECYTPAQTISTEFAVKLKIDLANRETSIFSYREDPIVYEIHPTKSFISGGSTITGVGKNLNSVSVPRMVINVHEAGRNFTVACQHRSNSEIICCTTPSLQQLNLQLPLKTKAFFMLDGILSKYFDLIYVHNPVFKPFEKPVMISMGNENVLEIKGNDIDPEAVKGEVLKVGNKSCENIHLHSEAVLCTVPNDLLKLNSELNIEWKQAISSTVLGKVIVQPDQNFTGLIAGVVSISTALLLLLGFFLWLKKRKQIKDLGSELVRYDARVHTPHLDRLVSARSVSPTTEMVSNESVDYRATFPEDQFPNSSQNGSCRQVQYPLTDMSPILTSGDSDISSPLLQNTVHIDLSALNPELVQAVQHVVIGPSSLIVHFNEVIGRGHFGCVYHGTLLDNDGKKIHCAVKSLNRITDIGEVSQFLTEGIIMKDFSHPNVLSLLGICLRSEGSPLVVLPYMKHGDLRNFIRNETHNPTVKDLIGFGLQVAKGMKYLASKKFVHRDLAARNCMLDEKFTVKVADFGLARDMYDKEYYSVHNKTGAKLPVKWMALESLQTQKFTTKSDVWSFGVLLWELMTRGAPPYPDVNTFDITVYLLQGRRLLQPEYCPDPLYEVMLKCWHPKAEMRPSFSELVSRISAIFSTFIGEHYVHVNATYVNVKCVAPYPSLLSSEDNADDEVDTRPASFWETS

IC50, inhibition of ERK phospho-T202/Y204 in Hs746T cells [1]: 0.5 nM
B1: 06BS03 (bispecific antibody, V domains shown)
VH 1: QVQLVESGGGVVQPGKSLRLSCAASGFTFSSSGLHWVRQAPGKGLEWVAVISYDTSNKYYADSVKGRFTISRDNSKNTLYLQMNSLRAEDTAVYYCAKDLNRGYDWGFDYWGQGTLVTVSS
VH 2: QFQLQESGPGLVKPSETLSLTCTVSGGSISTSSYYWGWIRQPPGKGLEWIGTIYYSGTTYYNPSLKSRVTISVDTSKNQFSLKLKSVTAADTSIYYCARHWPKYNSWFDPWGQGILVTVSS
VL: not shown

IC50, inhibition of HGF-induced ERK phospho-T202/Y204 in H596 cells [2]: > 250 nM
B2: 063Ab07710 (antibody, human IgG1, kappa, V domains shown)
VH: QVQLVESGGGVVQPGRSLRLSCAASGFTFSSYGMHWVRQAPGKGLEWVAVISNDGSYKYYVDSVTGRFTISRDNSKNTLYLQMNSLRAEDTAVYYCAKDRNMGYSGWFDYWGQGSLVTVSS
VL: not shown

Imax %, inhibition of HGF-induced ERK phospho-T202/Y204 in H596 cells [3]: 90%
B3: 06BS02 (bispecific antibody, V domains shown)
VH 1: B2 VH with Y32H, N53Y, G55E, Y57D, V61A, T65K, N74H, A97V, F108L, S115T
VH 2: B1 VH 2 with Y55F, K66T, T70S, I71M, K85N, I115F
VL: not shown
